Measurements from publication PMC3032881.

Key:
[1] = target: soluble recombinant HLA A*0201 (α chain tagged with a biotinylation sequence, with β2m); experiment: SPR; real time pMHC stability assay, BIAcore 3000, CM5 chip; ~500 RU of biotinylated refolded pMHCI immobilised on streptavidin; flow 10 μl/min for 15,000 s; Langmuir dissociation analysis converted to half-life
[2] = target: HLA A*0201 on the surface of TAP deficient T2 cells (human (endogenous in T2 cells)); experiment: flow cytometry on cells; T2-binding assay: TAP deficient T2 cells with peptide at 100, 50, 10 and 1 μM in AIM-V, 10 min 37 °C, room temperature overnight, 2 h 37 °C; surface HLA A*0201 stained with anti-human HLA A*0201:RPE; MFI fitted (log(agonist) vs. response) to logEC50

**Q.** With NY-ESO-1 157-165 peptide … as the substance, how does the half-life [1] read?
**A.** 8.9 h

**Q.** And the koff [1]?
**A.** 2.2e-05 s⁻¹

**Q.** What about the LogEC50 [2] of the same substance?
**A.** -3.53 M

**Q.** Which half-life [1] does the source give for PSA 178-187 peptide … here?
**A.** 16.9 h

**Q.** And the koff [1]?
**A.** 1.1e-05 s⁻¹

**Q.** And the LogEC50 [2]?
**A.** -4.3 M
